38 variants from the RNAGym collection of RNA variant scans (doi:10.7554/elife.80360) can be followed below.

B1: Hairpin Ribozyme (parent)
chain: GUCCUCUUUCACGUGCGCGUGAAAGAGAGAAGUGAACCAGAGAAACACACGUUGUGGUAUAUUACCUGGUA

The variants in this series derive from B1. In words: self-cleavage, relative activity (ratio to wild type); higher = more cleavage; co-transcriptional.
GUCCUCUUUCAGGUGCGCGUGAAAGAGAGAAGUGAACGAGAGAAACACACGUUGUGGUAUAUUACCUGGUA [C12G C38G]: the self-cleavage is 0.142.

For the variant GUCCUCUUUCACGUGCCCGUGAAAGAGAGAGGUGAACCAGAGAAACACACGUUGUGGUAUAUUACCUGGUA [G17C A31G], the self-cleavage came to 0.425.

Regarding GUCCUCUUUCACGUGCGCGUGAAAGAGAGAAGUGAACCAGAGGAACACACGUUGUGGUAUAUUACCUGGAA [A43G U70A], the self-cleavage is 0.225.

Take GUCCUCUUUCACGUGCGCGUGAAAGAGAGAAAUGAACCAGAGAAACACACGUUUUGGUAUAUUACCUGGUA [G32A G54U]: the self-cleavage is 0.136.

With GACCUCUUUCACGUGCGCGUGAAAGAGAGAAGUGAACUAGAGAAACACACGUUGUGGUAUAUUACCUGGUA [U2A C38U], the self-cleavage came out at 0.14.

GUCCUCUUUCACGGGCGCGUGAACGAGAGAAGUGAACCAGAGAAACACACGUUGUGGUAUAUUACCUGGUA [U14G A24C]: the self-cleavage was 0.887.

With GUCCUCUUUCACGUGCGCGUGAAAGAGAGAAGUGAACCAGAGAAACACAAGUUGUGGUAUAUUACCUGUUA [C50A G69U], the self-cleavage was found to be 0.173.

On to GUCCUCUUUCACGUGCGCGUGUAAGAGAGAAGUGAACCAGAGAAACACACGUUGUGGUAUAUUACCUGGGA [A22U U70G], for which the self-cleavage was determined as 0.674.

Consider GUCCUCUUUCACGUGCGCGUGAAAGAGAGAAGUGAACCAGAGAAACACACGUUGUGGUAUAUUACUUGAUA [C66U G69A], for which the self-cleavage came to 0.216.

As to GUCCUCUUUCACGUGCGGGUGAAAGAGAGAAGUAAACCAGAGAAACACACGUUGUGGUAUAUUACCUGGUA [C18G G34A], the self-cleavage was 1.23.

As for GUCCUCUUUCACGUGCUCGUGAAAGAGAGAAGUGGACCAGAGAAACACACGUUGUGGUAUAUUACCUGGUA [G17U A35G], the self-cleavage amounted to 1.02.

Take GUCCUCUUUCUCGUGAGCGUGAAAGAGAGAAGUGAACCAGAGAAACACACGUUGUGGUAUAUUACCUGGUA [A11U C16A]: the self-cleavage is 0.696.

For GUCCUCUUUCACGUGCGCGUGAAAGAGAGAAGUGAACCAGAGAACCACACGUUGUGUUAUAUUACCUGGUA [A45C G57U], the self-cleavage was 0.249.

Consider GUCCGCUUUCACGUGCGCGUGAAAGAGAGAAGUGAACCAGAGAAUCACACGUUGUGGUAUAUUACCUGGUA [U5G A45U], for which the self-cleavage is 0.0709.

For GUCCACUUUCACGUGCGCGUGAAAGAGUGAAGUGAACCAGAGAAACACACGUUGUGGUAUAUUACCUGGUA [U5A A28U], the self-cleavage is 0.126.

Regarding GUCCUCUUUCACGUGCGCGUGAAAGAGAGGAGUGAACCAGAGAAACACACGUUGUGGUGUAUUACCUGGUA [A30G A59G], the self-cleavage was determined as 0.311.

Turning to GUUCUCUUUCACGUGCGCGUGAAAAAGAGAAGUGAACCAGAGAAACACACGUUGUGGUAUAUUACCUGGUA [C3U G25A], the self-cleavage came to 0.205.

Regarding GUCCUCUUUCACGUGCGCGUGAAAGAGAGAAGUGAACCAAAGAAACACACGUUGUGGUAUAUUACGUGGUA [G40A C66G], the self-cleavage came to 0.164.

On to GUACUCUUUCACGAGCGCGUGAAAGAGAGAAGUGAACCAGAGAAACACACGUUGUGGUAUAUUACCUGGUA [C3A U14A], for which the self-cleavage is 0.525.

As for GUCCUCUUUCACGUGCGCGUGCAAGAGAGGAGUGAACCAGAGAAACACACGUUGUGGUAUAUUACCUGGUA [A22C A30G], the self-cleavage is 0.179.

As for GUCCUCUUUCACGUGCGCGUGAAAGAGAGAAGUGAACCAAAGGAACACACGUUGUGGUAUAUUACCUGGUA [G40A A43G], the self-cleavage came to 0.18.

On to GUCCUCUUUCACGCGCGCGUGAAAGAGAGAAGUUAACCAGAGAAACACACGUUGUGGUAUAUUACCUGGUA [U14C G34U], for which the self-cleavage amounted to 1.54.

Take GUCCUCUUUCACGUGCGCGUGAAAGAGAGAAGUGAACCAGAGAACCACACGUUGCGGUAUAUUACCUGGUA [A45C U55C]: the self-cleavage was found to be 0.244.

Turning to GUCCUCUUUCACGUUCGCGUGCAAGAGAGAAGUGAACCAGAGAAACACACGUUGUGGUAUAUUACCUGGUA [G15U A22C], the self-cleavage was 0.681.

Take GUCCUCUUUCACGUGCGCGUGAAAGAGAGGACUGAACCAGAGAAACACACGUUGUGGUAUAUUACCUGGUA [A30G G32C]: the self-cleavage is 0.106.

With GUCCCCUUUCACGUGCGCGUGAAAGAGAGAAGUGAACCAGCGAAACACACGUUGUGGUAUAUUACCUGGUA [U5C A41C], the self-cleavage was 0.734.

Consider GUCCUCUUUCACGUGCGCGUGAAAGAGAAAAGUGAACCAGAGAAACACACGCUGUGGUAUAUUACCUGGUA [G29A U52C], for which the self-cleavage came to 0.156.

As to GUCCUCUUUCACGCGCGCGUGAAAGAGAGAAGUGAACCAGAGAAACACACGUUGUGGUAUAUUACCUUGUA [U14C G68U], the self-cleavage was found to be 0.13.

Regarding GUCCUCUUUCACGUACGCGUGAAAAAGAGAAGUGAACCAGAGAAACACACGUUGUGGUAUAUUACCUGGUA [G15A G25A], the self-cleavage turned out to be 0.576.

Take GUCGUCUUGCACGUGCGCGUGAAAGAGAGAAGUGAACCAGAGAAACACACGUUGUGGUAUAUUACCUGGUA [C4G U9G]: the self-cleavage amounted to 0.164.

On to GUCCUCUUUCGCGUGCGCGUGAAAGAGAGAAGUGAACCAGAGAAACACAUGUUGUGGUAUAUUACCUGGUA [A11G C50U], for which the self-cleavage is 0.321.

On to GUCCUCUAUCACGUGCGCGUGAAAGAGAGAAGUGAACCAGAGAAAGACACGUUGUGGUAUAUUACCUGGUA [U8A C46G], for which the self-cleavage is 0.0541.

In the case of GUCCUCUUUCAAGUGCGCGUGAAAGAGAGAAGUGAACCAGAGAAACACACGUUGUGGUAUAUUAUCUGGUA [C12A C65U], the self-cleavage is 0.309.

GUCCUCUUUCACGUGCGCGUGAAAGAGAGAAGUUAACCAGAGAAACACACGCUGUGGUAUAUUACCUGGUA [G34U U52C]: the self-cleavage was 0.926.

Regarding GUCCUCUUUCACGUGCGCGUGAAAGAGAGAAGUGAACCAGAGAAACACACGUUGUGGUAUAUCACCUGGAA [U63C U70A], the self-cleavage worked out at 0.189.

With GUCCUCUUUCACGUGCGCGUGAAAGAGAAAAGUGAACCAGAGACACACACGUUGUGGUAUAUUACCUGGUA [G29A A44C], the self-cleavage was determined as 0.17.

GUCCUCUUUCACGUGCGCGUGACAGAGAGAAGUGACCCAGAGAAACACACGUUGUGGUAUAUUACCUGGUA [A23C A36C]: the self-cleavage turned out to be 0.286.

Regarding GUGCUCUUUCACGUGCGCGUGAAAGAGAGAAGUGAACCAGAGAAACACACGUUGUGGUAUAUUACCUGGUG [C3G A71G], the self-cleavage is 0.308.
